The supplement of paper PMC11780869

Test system: Bacillus subtilis
Experiment: cleaved RNA product abundance (RNA/gDNA barcode ratio) relative to median wild-type variant (ratio to wild type); higher = more accumulation of the downstream cleavage product
In short: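 Reporter mRNAs (truncated aprE or tetM) carrying barcoded, mutagenized RNase Y cleavage-site windows were made from oligos with a 9% error rate and integrated into the B. subtilis chromosome. Cultures grew in LB at 37°C from OD600 0.0003 to 0.3. Cleaved RNA was gel-selected, reverse transcribed and barcode-sequenced alongside genomic DNA barcodes, with UMI collapsing. Cleaved product abundance is the RNA:gDNA barcode ratio per variant, scaled to the median wild-type variant.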

[1] = experiment (reporter, strain, medium): exp 2b: truncated aprE reporter, strain BJT200, cleavage site: cggR-gapA (positions -7 to +36 mutated)
[2] = experiment (reporter, strain, medium): exp 8a: truncated aprE reporter, strain BJT201 with 2% xylose (RNase J1 expressed), cleavage site: glnRA (positions -5 to +31 mutated)
[3] = experiment (reporter, strain, medium): exp 4a: truncated aprE reporter, strain BJT201 with 2% xylose (RNase J1 expressed), cleavage site: cggR-gapA (positions -7 to +36 mutated)

ACAGACGAAGGAGCCGCAAAGAAGTTAATAAGGGATGAATAATCCCGCAATATAAATATCTCTCACTTATTTAAA
cleaved RNA product abundance [1]: 0.0984

CGACATGTCCCGCTTCTTTCATTAATCAGTTAGCAACTGTTTAGCTATATACATTTACCTTTTAAGAGGAGGAAT
cleaved RNA product abundance [2]: 0.775

CGACATGTCCCGCTTCTTTCATTATTCCGTTAACAACTGTTTTGCTATATACTTTTACCTTTTAAGAGGAGGAAT
cleaved RNA product abundance [2]: 0.273

CGACATGTCCCGCTTCTTTCATTAATCCTTTAGCAAATGTTTTGCTATATACATTTACCTTTTAAGAGGAGGAAT
cleaved RNA product abundance [2]: 0.608

ACAGACGAAGGAGCCGCAAAGACGTTATTAAGCGATGAATAATCCCTCAATATAAATATCTCTCACTTATTTAAA
cleaved RNA product abundance [3]: 0.155

CGACATGTCCCGCTTCTTTCATTAATCCGTTAGCAACTGTTTTGCTTTATACATATACCTTTTAAGAGGAGGAAT
cleaved RNA product abundance [2]: 0.406

ACAGACGAAGGAGCCGCAAAGAAGTTATAAAGGGATGAATAATCCCTCAATTTAAATATCTCTCACTTATTTAAA
cleaved RNA product abundance [1]: 0.146
cleaved RNA product abundance [3]: 0.152

ACAGACGAAGGAGCCGCAAAGAAGTTATTAAGGGATTAATAATCCCTCAATATAAATATATCTCACTTATTTAAA
cleaved RNA product abundance [3]: 1.23

ACAGACGAAGGAGCCGCAAAGAAGTTATTAAGGGATGAATAATCCCTCAATATAAATATCTCTCACTTATTAAAG
cleaved RNA product abundance [1]: 0.94
cleaved RNA product abundance [3]: 0.971

ACAGACGAAGGAGCCGCAAAGAAATTATTAAGGGATGAATAATCCCTCAAAATAAATATCTCTCACTTATTTAAA
cleaved RNA product abundance [1]: 0.257
cleaved RNA product abundance [3]: 0.365

ACAGACGAAGGAGCCGCAAAGAATTTATTAAGGGATGAATAATCCCACAATATAAATATCTCTCACTTATTTAAA
cleaved RNA product abundance [3]: 0.259

CGACATGTCCCGCTTCTTTCATTAATCCGTTAGCAACTGTTTTTCTATATACATTTACATTTTAAGAGGAGGAAT
cleaved RNA product abundance [2]: 0.576

ACAGACGAAGGAGCCGCAAAGAAGTTATTAAGGGATGAATAATCCCTACATATAAATATCTCTCACTTATTTAAA
cleaved RNA product abundance [3]: 0.203

ACAGACGAAGGAGCCGCAAAGAAGTTATTAATGGATGAATAATGCCTCAATATAAATATCTCTCACTTATTTAAA
cleaved RNA product abundance [1]: 0.0612
cleaved RNA product abundance [3]: 0.105

CGACATGTCCCGCTTCTTTCATTAATCCGTAAGCAACTGTTTTACTATATACATTTACCTTTTAAGAGGAGGAAT
cleaved RNA product abundance [2]: 0.583

ACAGACGAAGGAGCCGCAAAGAAGTTATTAAGAGATGAATAATCCCTCAACATAAATATCTCTCACTTATTTAAA
cleaved RNA product abundance [1]: 0.111
cleaved RNA product abundance [3]: 0.132

ACAGACGAAGGAGCCGCAAAGAAGTTATTAAGGGATTAATAATCCCTGAATATAAATATCTCTCACTTATTTAAA
cleaved RNA product abundance [3]: 0.768

ACAGACGAAGGAGCCGCAAAGAAGTTATTAAGGGAAGAATAACCCCTCAATATAAATATCTCTCACTTATTTAAA
cleaved RNA product abundance [1]: 0.283
cleaved RNA product abundance [3]: 0.369

ACAGACGAAGGAGCCGCAAAGAAGTTAATAAGGGATGAATAATCCCTAAATATAAATATCTCTCACTTATTTAAA
cleaved RNA product abundance [3]: 0.306

ACAGACGAAGGAGCCGCAAAGAAGTTATTAACGAATGAATAATCCCTCAATATAAATATCTCTCACTTATTTAAA
cleaved RNA product abundance [1]: 0.0836
cleaved RNA product abundance [3]: 0.0881

CGACATGTCCCGCTTCTTTCATTAATCCGTTAGCAACAGTTTTGCTATATACATTTACTTTTTAAGAGGAGGAAT
cleaved RNA product abundance [2]: 1.18

CGACATGTCCCGCTTCTTTCATTAATCCGTTAGCACCTGTTTTGCAATATACATTTACCTTTTAAGAGGAGGAAT
cleaved RNA product abundance [2]: 0.351

CGACATGTCCCGCTTCTTTCATTAATCCGTTGGCAACTATTTTGCTATATACATTTACCTTTTAAGAGGAGGAAT
cleaved RNA product abundance [2]: 0.866

ACAGACGAAGGAGCCGCAAAGAAGTTATAAAGGGATGAATAATCCCTCTATATAAATATCTCTCACTTATTTAAA
cleaved RNA product abundance [3]: 0.941

CGACATGTCCCGCTTCTTTCATTAATCCGTTGGCAATTGTTTTGCTATATACATTTACCTTTTAAGAGGAGGAAT
cleaved RNA product abundance [2]: 1.12

ACAGACGAAGGAGCCGCAAAGAAGTTTATTAAGGGATGAATAATCCCTCAATATAAATATCTCTCACTTATTTAA
cleaved RNA product abundance [3]: 0.754

ACAGACGAAGGAGCCGCAAAGAAGTTATTAGAGGATGAATAATCCCTCAATATAAATATCTCTCACTTATTTAAA
cleaved RNA product abundance [3]: 0.301

ACAGACGAAGGAGCCGCAAAGACGTTATTAATGGATGAATAATCCTTCAATATAAATATCTCTCACTTATTTAAA
cleaved RNA product abundance [3]: 0.23

ACAGACGAAGGAGCCGCTAAGAAGTTATTAAGGGATGAATAAACCCTCAATATAAATATCTCTCACTTATTTAAA
cleaved RNA product abundance [1]: 0.537
cleaved RNA product abundance [3]: 0.689

ACAGACGAAGGAGCCGCAAAGAAGTTATTAAGGTATGAATAATCCCTCAATATAAATCTCTCTCACTTATTTAAA
cleaved RNA product abundance [1]: 0.0874

ACAGACGAAGGAGCCGCAAAGAACTTATTAAGGGATGAATAACCCCTCAATATAAATATCTCTCACTTATTTAAA
cleaved RNA product abundance [1]: 0.235

ACAGACGAAGGAGCCGCAGAGAAGTTATTAAAGGATGAATAATCCCTCAATATAAATATCTCTCACTTATTTAAA
cleaved RNA product abundance [1]: 0.128
cleaved RNA product abundance [3]: 0.227

ACAGACGAAGGAGCCGCAAAGAAGTTATTAAGGGATGAGTAATCACTCAATATAAATATCTCTCACTTATTTAAA
cleaved RNA product abundance [3]: 0.264

CGACATGTCCCGCTTCTTTCATTAATCCGTAAGCAACTGTTTTGATATATACATTTACCTTTTAAGAGGAGGAAT
cleaved RNA product abundance [2]: 0.329

ACAGACGAAGGAGCCGCAAAGAAGTTATTAAAGGATGAATAATCCCTCAATGTAAATATCTCTCACTTATTTAAA
cleaved RNA product abundance [1]: 0.0901
cleaved RNA product abundance [3]: 0.0731

ACAGACGAAGGAGCCGCAAAGAAGTTATTAAGGGATGAATATTTCCTCAATATAAATATCTCTCACTTATTTAAA
cleaved RNA product abundance [1]: 0.188
cleaved RNA product abundance [3]: 0.186

CGACATGTCCCGCTTCTTTCATTAATCCGTTAGCAACTGTTTTGCTGTATAAATTTACCTTTTAAGAGGAGGAAT
cleaved RNA product abundance [2]: 0.199

ACAGACGAAGGAGCCGCAAAGAAGTTAAAAAAGGATGAATAATCCCTCAATATAAATATCTCTCACTTATTTAAA
cleaved RNA product abundance [3]: 0.227

ACAGACGAAGGAGCCGCAAAGGAGTTATTAAGGGAAGAATAATCCCTCAATATAAATATCTCTCACTTATTTAAA
cleaved RNA product abundance [1]: 0.495

ACAGACGAAGGAGCCGCAAAGAAGTTATTAAGGGATGAATAATGTCTCAATATAAATATCTCTCACTTATTTAAA
cleaved RNA product abundance [3]: 0.0823

CGACATGTCCCGCTTCTTTCATTACTCCGTTAGCAACTGTTTTGCTATATACATTTACCATTTAAGAGGAGGAAT
cleaved RNA product abundance [2]: 1.3

CGACATGTCCCGCTTCTTTCATTAATCCGTAAGCATCTGTTTTGCTATATACATTTACCTTTTAAGAGGAGGAAT
cleaved RNA product abundance [2]: 0.322

CGACATGTCCCGCTTCTTTCATTATTCCGTTAGCAACTGTTTTGCTACATACATTTACCTTTTAAGAGGAGGAAT
cleaved RNA product abundance [2]: 0.626

CGACATGTCCCGCTTCTTTCATTATTCCGTTAGCAACTGTTTTGCTATATATATTTACCTTTTAAGAGGAGGAAT
cleaved RNA product abundance [2]: 1.45

ACAGACGAAGGAGCCGCAAAGAAGTTATTAAGGGATGTAGAATCCCTCAATATAAATATCTCTCACTTATTTAAA
cleaved RNA product abundance [3]: 0.768

ACAGACGAAGGAGCCGCAAAGAAGTTATTAAGGGATGAATAATTCCACAATATAAATATCTCTCACTTATTTAAA
cleaved RNA product abundance [3]: 0.148

CGACATGTCCCGCTTCTTTCATTAATCCTTTAGCAACTGTTTTGCTATATACATTGACCTTTTAAGAGGAGGAAT
cleaved RNA product abundance [2]: 0.333

ACAGACGAAGGAGCCGCAAAGAAGTTATTCAGGGATGAATAATCCATCAATATAAATATCTCTCACTTATTTAAA
cleaved RNA product abundance [3]: 0.319

CGACATGTCCCGCTTCTTTCATTAATCCGTTAGCAACTGTTTTACTATATACATTTACATTTTAAGAGGAGGAAT
cleaved RNA product abundance [2]: 0.688

CGACATGTCCCGCTTCTTTCATTAATCCGTTAGCAACTGTCTTGCTATATACATTTACCTTTTAAGAGGAGGAAT
cleaved RNA product abundance [2]: 0.849

ACAGACGAAGGAGCCGCAAAGAAGTTATTAAGGGATGAATAATTCCTCACTATAAATATCTCTCACTTATTTAAA
cleaved RNA product abundance [1]: 0.132
cleaved RNA product abundance [3]: 0.156

ACAGACGAAGGAGCCGCAAAGAAGTTATTAAGGGATGAATTATCCCTAAATATAAATATCTCTCACTTATTTAAA
cleaved RNA product abundance [1]: 0.399
cleaved RNA product abundance [3]: 0.433

ACAGACGAAGGAGCCGCAATTAAGTTATTAAGGGATGAATAATCCCTCAATATAAATATCTCTCACTTATTTAAA
cleaved RNA product abundance [1]: 0.955
cleaved RNA product abundance [3]: 0.863

CGACATGTCCCGCTTCTTTCATTAATCCATTAGCAACTGTTTCGCTATATACATTTACCTTTTAAGAGGAGGAAT
cleaved RNA product abundance [2]: 0.271

ACAGACGAAGGAGCCGCAAAGAAGTTATTAAGGGATGAATAAGCCCTCAAAATAAATATCTCTCACTTATTTAAA
cleaved RNA product abundance [3]: 0.261

CGACATGTCCCGCTTCTTTCATTAATCCGTTAGCAACTGTTTTGCTATATTACATTTACCTTTTAAGAGGAGGAA
cleaved RNA product abundance [2]: 0.443

ACAGACGAAGGAGCCGCAAAGAAGTTATGAAGGGATGAATAATCCCTCAATATACATATCTCTCACTTATTTAAA
cleaved RNA product abundance [3]: 0.344

ACAGACGAAGGAGCCGCAAAGAAGTTATTTAGCGATGAATAATCCCTCAATATAAATATCTCTCACTTATTTAAA
cleaved RNA product abundance [1]: 0.117
cleaved RNA product abundance [3]: 0.0809

CGACATGTCCCGCTTCTTTCATTAATCCGTTATCAACTGCTTTGCTATATACATTTACCTTTTAAGAGGAGGAAT
cleaved RNA product abundance [2]: 0.114

ACAGACGAAGGAGCCGCAAAGAAACTATTAAGGGATGAATAATCCCTCAATATAAATATCTCTCACTTATTTAAA
cleaved RNA product abundance [1]: 0.644
cleaved RNA product abundance [3]: 0.557

CGACATGTCCCGCTTCTTTCATTAATCCGTTATCAACTGTTTTGCTATATACATTTCCCTTTTAAGAGGAGGAAT
cleaved RNA product abundance [2]: 0.124
